Test results published in patent US20100135997A1 (MEDGENE, published 2010).

Target: T1, HLA-A*0201 loaded with the Carcinoembryonic antigen (CEA)-derived … peptide (biotin on the C-terminal biotinylation tag)
T1 construct: Soluble, biotinylated, immobilised on a streptavidin chip
Test: Biacore SPR
Procedure: SPR measures changes in refractive index expressed in response units (RU) near a sensor surface within a small flow cell, a principle that can be used to detect receptor ligand interactions and to analyse their affinity and kinetic parameters. The probe flow cells were prepared by immobilising the pMHC complexes in flow cells via biotin-tag binding. The assay was then performed by passing soluble ILT-like molecule over the surfaces of the different flow cells at a constant flow rate, measuring the SPR response in doing so.

B1: SEQ ID NO 61 (receptor)
chain: MGHLPKPTLWAEPGSVITMGQPVTLRCQGGQETQEYRLYREKKTAPWITRIPQELVKKGQFPIPSITWEHAGRYRCYYGSDTAGRSESSDPLELVVTGAYIKPTLSAQPSPVVNSGGNVTLQCDSQVAFDGFILCKEGEDEHPQCLNSQPHARGSSRAIFSVGPVSPSRRWWYRCYAYDSNSPYEWSLPSDLLELLVL
notes: mutated soluble two domain ILT-2
Kd: ≤ 1000 nM | koff: ≤ 2 s⁻¹

B2: SEQ ID NO 62 (receptor)
chain: MGHLPKPTLWAEPGSVITMDQPVTLRCQGGQETQEYRLYREKKTAPWITRIPQELVKKGQFPIPSITWEHAGRYRCYYGSDTAGRSESSDPLELVVTGVYIKPTLSAQPSPVVNSGGNVTLQCDSQVAFDGFILCKEGEDEHPQCLNSQPHARGSSRAIFSVGPVSPGRRWWYRCYAYDSNSPYEWSLPSDLLELLVL
notes: as for B1
Kd: ≤ 1000 nM | koff: ≤ 2 s⁻¹

B3: SEQ ID NO 72 (receptor)
chain: MGHLPKPTLWAEPGSVITQGSPVTLRCQGGQETQEYRLYREKKTAPWITRIPQELVKKGQFPIPSITWEHAGRYRCYYGTQTAGRSESSDPLELVVTGVYIKPTLSAQPSPVVNSGGNVTLQCDSQVAFDGFILCKEGEDEHPQCLNSQPHARGSSRAIFSVGPVSPSRRWWYRCYAYDSNSPYEWSLPSDLLELLVL
notes: as for B1
Kd: ≤ 1000 nM | koff: ≤ 2 s⁻¹

B4: SEQ ID NO 76 (receptor)
chain: MGHLPKPTLWAEPGSVITQGSPVTLRCQGGQETQEYRLYREKKTAPWITRIPQELVKKGQFPIPSITWEHAGRYRCYYGTQTAGRSESSDPLELVVTGAYIKPTLSAQPSPVVNSGGNVTLQCDSQVAFDGFILCKEGEDEHPQCLNSQPHARGSSRAIFSVGPVSPSRRWWYRCYAYDSNSPYEWSLPSDLLELLVL
notes: as for B1
Kd: ≤ 1000 nM | koff: ≤ 2 s⁻¹

B5: SEQ ID NO 63 (receptor)
chain: MGHLPKPTLWAEPGSVITLMQPVTLRCQGGQETQEYRLYREKKTAPWITRIPQELVKKGQFPIPSITWEHAGRYRCYYGSDTAGRSESSDPLELVVTGAYIKPTLSAQPSPVVNSGGNVTLQCDSQVAFDGFILCKEGEDEHPQCLNSQPHARGSSRAIFSVGPVSPSRRWWYRCYAYDSNSPYEWSLPSDLLELLVL
notes: as for B1
Kd: ≤ 1000 nM | koff: ≤ 2 s⁻¹

B6: SEQ ID NO 83 (receptor)
chain: MGHLPKPTLWAEPGSVITQGSPVTLRCQGGQETQEYRLYREKKTAPWITRIPQELVKKGQFPIPSITWEHAGRYRCYYGSDTAGRSESSDPLELVVTGIYLAPTLSAQPSPVVNSGGNVTLQCDSQVAFDGFILCKEGEDEHPQCLNSQPHARGSSRAIFSVGPVSPSRRWWYRCYAYDSNSPYEWSLPSDLLELLVL
notes: as for B1
Kd: ≤ 1000 nM | koff: ≤ 2 s⁻¹

B7: SEQ ID NO 68 (receptor)
chain: MGHLPKPTLWAEPGSVITLFQPVTLRCQGGQETQEYRLYREKKTAPWITRIPQELVKKGQFPIPSITWEHAGRYRCYYGSDTAGRSESSDPLELVVTGAYIKPTLSAQPSPVVNSGGNVTLQCDSQVAFDGFILCKEGEDEHPQCLNSQPHARGSSRAIFSVGPVSPSRRWWYRCYAYDSNSPYEWSLPSDLLELLVL
notes: as for B1
Kd: ≤ 1000 nM | koff: ≤ 2 s⁻¹

B8: SEQ ID NO 73 (receptor)
chain: MGHLPKPTLWAEPGSVITQGSPVTLRCQGGQETQEYRLYREKKTAPWITRIPQELVKKGQFPIPSITWEHAGRYRCMQYTLTAGRSESSDPLELVVTGVYIKPTLSAQPSPVVNSGGNVTLQCDSQVAFDGFILCKEGEDEHPQCLNSQPHARGSSRAIFSVGPVSPSRRWWYRCYAYDSNSPYEWSLPSDLLELLVL
notes: as for B1
Kd: ≤ 1000 nM | koff: ≤ 2 s⁻¹

B9: SEQ ID NO 71 (receptor)
chain: MGHLPKPTLWAEPGSVITQGSPVTLRCQGGQETQEYRLYREKKTAPWITRIPQELVKKGQFPIPSITWEHAGRYRCYYGSQGGLRSESSDPLELVVTGVYIKPTLSAQPSPVVNSGGNVTLQCDSQVAFDGFILCKEGEDEHPQCLNSQPHARGSSRAIFSVGPVSPSRRWWYRCYAYDSNSPYEWSLPSDLLELLVL
notes: as for B1
Kd: ≤ 1000 nM | koff: ≤ 2 s⁻¹

B10: SEQ ID NO 65 (receptor)
chain: MGHLPKPTLWAEPGSVITMDQPVTLRCQGGQETQEYRLYREKKTAPWITRIPQELVKKGQFPIPSITWEHAGRYRCYYGSDTSQWSASSDPLELVVTGVYIKPTLSAQPSPVVNSGGNVTLQCDSQVAFDGFILCKEGEDEHPQCLNSQPHARGSSRAIFSVGPVSPSRRWWYRCYAYDSNSPYEWSLPSDLLELLVL
notes: as for B1
Kd: ≤ 1000 nM | koff: ≤ 2 s⁻¹

B11: SEQ ID NO 70 (receptor)
chain: MGHLPKPTLQAEPGSVITQGSPVTLRCQGGQETQEYRLYREKKTAPWITRIPQELVKKGQFPIPSITWEHAGRYRCVIQRGTAGRSESSDPLELVVTGVYIKPTLSAQPSPVVNSGGNVTLQCDSQVAFDGFILCKEGEDEHPQCLNSQPHARGSSRAIFSVGPVSPSRRWWYRCYAYDSNSPYEWSLPSDLLELLVL
notes: as for B1
Kd: ≤ 1000 nM | koff: ≤ 2 s⁻¹

B12: SEQ ID NO 64 (receptor)
chain: MGHLPKPTLWAEPGSVITMQRPVTLRCQGGQETQEYRLYRERKTAPWITRIPQELVKKGQFPIPSITWEHAGRYRCYYGSDTAGRSESSDPLELVVTGAYIKPTLSAQPSPVVNSGGNVTLQCDSQVAFDGFILCKEGEDEHPQCLSSQPHARGSSRAIFSVGPVSPSRRWWYRCYAYDSNSPYEWSLPSDLLELLVL
notes: as for B1
Kd: ≤ 1000 nM | koff: ≤ 2 s⁻¹

B13: SEQ ID NO 82 (receptor)
chain: MGHLPKPTLWAEPGSVITQGSPVTLRCQGGQETQEYRLYREKKTAPWITRIPQELVKKGQFPIPSITWEHAGRYRCYYGSDTAGRSESSDPLELVVTGIYRQPTLSAQPSPVVNSGGNVTLQCDSQVAFDGFILCKEGEDEHPQCLNSQPHARGSSRAIFSVGPVSPSRRWWYRCYAYDSNSPYEWSLPSDLLELLVL
notes: as for B1
Kd: ≤ 1000 nM | koff: ≤ 2 s⁻¹

B14: SEQ ID NO 75 (receptor)
chain: MGHLPKPTLWAEPGSVITQGSPVTLRCQGGQETQEYRLYREKKTAPWITRIPQELVKKGQFPIPSITWEHAGRYRCYYGSQGGLRSESSDPLELVVTGAYIKPTLSAQPSPVVNSGGNVTLQCDSQVAFDGFILCKEGEDEHPQCLNSQPHARGSSRAIFSVGPVSPSRRWWYRCYAYDSNSPYEWSLPSDLLELLVL
notes: as for B1
Kd: ≤ 1000 nM | koff: ≤ 2 s⁻¹

B15: SEQ ID NO 84 (receptor)
chain: MGHLPKPTLWAEPGSVITQGSPVTLRCQGGQETQEYRLYREKKTAPWITRIPQELVKKGQFPIPSITWEHAGRYRCYYGSDTAGRSESSDPLELVVTGIYKAPTLSAQPSPVVNSGGNVTLQCDSQVAFDGFILCKEGEDEHPQCLNSQPHARGSSRAIFSVGPVSPSRRWWYRCYAYDSNSPYEWSLPSDLLELLVL
notes: as for B1
Kd: ≤ 1000 nM | koff: ≤ 2 s⁻¹

B16: SEQ ID NO 81 (receptor)
chain: MGHLPKPTLWAEPGSVITMDQPVTLRCQGGQETQEYRLYREKKTAPWITRIPQELVKKGQFPIPSITWEHAGRYRCMQYTLTAGRSESSDPLELVVTGVYIKPTLSAQPSPVVNSGGNVTLQCDSQVAFDGFILCKEGEDEHPQCLNSQPHARGSSRAIFSVGPVSPSRRWWYRCYAYDSNSPYEWSLPSDLLELLVL
notes: as for B1
Kd: ≤ 1000 nM | koff: ≤ 2 s⁻¹

B17: SEQ ID NO 80 (receptor)
chain: MGHLPKPTLWAEPGSVITMDQPVTLRCQGGQETQEYRLYREKKTAPWITRIPQELVKKGQFPIPSITWEHAGRYRCVIQRGTAGRSESSDPLELVVTGVYIKPTLSAQPSPVVNSGGNVTLQCDSQVAFDGFILCKEGEDEHPQCLNSQPHARGSSRAIFSVGPVSPSRRWWYRCYAYDSNSPYEWSLPSDLLELLVL
notes: as for B1
Kd: ≤ 1000 nM | koff: ≤ 2 s⁻¹

B18: SEQ ID NO 79 (receptor)
chain: MGHLPKPTLWAEPGSVITMDQPVTLRCQGGQETQEYRLYREKKTAPWITRIPQELVKKGQFPIPSITWEHAGRYRCYYGTQTAGRSESSDPLELVVTGVYIKPTLSAQPSPVVNSGGNVTLQCDSQVAFDGFILCKEGEDEHPQCLNSQPHARGSSRAIFSVGPVSPGRRWWYRCYAYDSNSPYEWSLPSDLLELLVL
notes: as for B1
Kd: ≤ 1000 nM | koff: ≤ 2 s⁻¹

B19: SEQ ID NO 78 (receptor)
chain: MGHLPKPTLWAEPGSVITMDQPVTLRCQGGQETQEYRLYREKKTAPWITRIPQELVKKGQFPIPSITWEHAGRYRCYYGSQGGLRSESSDPLELVVTGVYIKPTLSAQPSPVVNSGGNVTLQCDSQVAFDGFILCKEGEDEHPQCLNSQPHARGSSRAIFSVGPVSPGRRWWYRCYAYDSNSPYEWSLPSDLLELLVL
notes: as for B1
Kd: ≤ 1000 nM | koff: ≤ 2 s⁻¹

B20: SEQ ID NO 69 (receptor)
chain: MGHLPKPTLWAEPGSVITLSQPVTLRCQGGQETQEYRLYREKKTAPWITRIPQELVKKGQFPIPSITWEHAGRYRCYYGSDTAGRSESSDPLELVVTGVYIKPTLSAQPSPVVNSGGNVTLQCDSQVAFDGFILCKEGEDEHPQCLNSQPHARGSSRAIFSVGPVSPSRRWWYRCYAYDSNSPYEWSLPSDLLELLVL
notes: as for B1
Kd: ≤ 1000 nM | koff: ≤ 2 s⁻¹

B21: SEQ ID NO 77 (receptor)
chain: MGHLPKPTLWAEPGSVITQGSPVTLRCQGGQETQEYRLYREKKTAPWITRIPQELVKKGQFPIPSITWEHAGRYRCMQYTLTAGRSESSDPLELVVTGAYIKPTLSAQPSPVVNSGGNVTLQCDSQVAFDGFILCKEGEDEHPQCLNSQPHARGSSRAIFSVGPVSPSRRWWYRCYAYDSNSPYEWSLPSDLLELLVL
notes: as for B1
Kd: ≤ 1000 nM | koff: ≤ 2 s⁻¹

B22: SEQ ID NO 74 (receptor)
chain: MGHLPKPTLWAEPGSVITQGSPVTLRCQGGQETQEYRLYREKKTAPWITRIPQELVKKGQFPIPSITWEHAGRYRCYYGSDTSQWSASSDPLELVVTGVYIKPTLSAQPSPVVNSGGNVTLQCDSQVAFDGFILCKEGEDEHPQCLNSQPHARGSSRAIFSVGPVSPSRRWWYRCYAYDSNSPYEWSLPSDLLELLVL
notes: as for B1
Kd: ≤ 1000 nM | koff: ≤ 2 s⁻¹
